Values of other authors as cited in article PMC5807066.
Several values for one entry are separate records, joined by “and”; a condition that tells them apart may be missing. Equal values may be shown once. Read-outs that look alike come from different tables or passages of the source.

How the values were obtained:
[1] = biological target: SecA:SecYEG complex (Escherichia coli) (UniProt C4ZRJ3)
[2] = biological target: SecA (Escherichia coli) (UniProt P10408)
[3] = biological target: SecA (Escherichia coli) (UniProt P10408); remark: listed apart in the source
[4] = biological target: SecA (Escherichia coli) (UniProt P10408); remark: listed apart in the source
[5] = biological target: MBP (unfolded) (Escherichia coli) [MBP: P0AEX9]

SecA, sequence (P10408 whole entry): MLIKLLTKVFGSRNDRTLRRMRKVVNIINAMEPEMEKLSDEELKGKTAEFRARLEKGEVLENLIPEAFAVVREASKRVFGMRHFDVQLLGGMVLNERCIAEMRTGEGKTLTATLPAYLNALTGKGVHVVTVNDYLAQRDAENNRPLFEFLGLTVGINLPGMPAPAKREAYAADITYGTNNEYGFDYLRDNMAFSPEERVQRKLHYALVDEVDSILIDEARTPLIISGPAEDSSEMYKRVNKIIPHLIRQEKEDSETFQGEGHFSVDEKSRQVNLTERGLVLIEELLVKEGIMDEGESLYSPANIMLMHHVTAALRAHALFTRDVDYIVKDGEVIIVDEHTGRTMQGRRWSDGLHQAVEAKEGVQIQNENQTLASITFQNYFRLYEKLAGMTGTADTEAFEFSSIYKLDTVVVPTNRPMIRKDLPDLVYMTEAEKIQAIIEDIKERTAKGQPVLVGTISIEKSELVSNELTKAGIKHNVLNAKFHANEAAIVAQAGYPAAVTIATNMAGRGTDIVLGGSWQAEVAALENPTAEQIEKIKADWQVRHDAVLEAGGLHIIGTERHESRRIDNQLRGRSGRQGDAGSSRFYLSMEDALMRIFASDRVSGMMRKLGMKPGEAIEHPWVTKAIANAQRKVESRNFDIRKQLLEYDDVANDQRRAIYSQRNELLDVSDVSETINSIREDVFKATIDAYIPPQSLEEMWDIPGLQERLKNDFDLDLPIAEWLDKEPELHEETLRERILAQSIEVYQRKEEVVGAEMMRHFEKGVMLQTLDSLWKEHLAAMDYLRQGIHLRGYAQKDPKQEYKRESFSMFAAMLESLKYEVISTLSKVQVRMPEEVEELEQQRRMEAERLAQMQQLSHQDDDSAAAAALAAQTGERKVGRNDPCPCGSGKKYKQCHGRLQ

For PhoA precursor (from UniProt P00634), the Kd [1] is listed as 230 nM.
For SecA (from UniProt P10408), the Kd [2] is listed as 100 nM and 1000 nM.
For SecB (from UniProt P0AG86), the Kd [3] is listed as 2000 nM, the Kd [4] is listed as 4000 nM and the Kd [5] is listed as 30 nM.
